Test results published in patent US20110172168A1 (MEDIGENE, published 2011).
Numbering of substitutions follows the chain as printed.

B1: soluble truncated variant of the Wild-Type ILT-2 molecule (receptor)
chain: MGHLPKPTLWAEPGSVITQGSPVTLRCQGGQETQEYRLYREKKTAPWITRIPQELVKKGQFPIPSITWEHAGRYRCYYGSDTAGRSESSDPLELVVTGAYIKPTLSAQPSPVVNSGGNVTLQCDSQVAFDGFILCKEGEDEHPQCLNSQPHARGSSRAIFSVGPVSPSRRWWYRCYAYDSNSPYEWSLPSDLLELLVL
notes: also called soluble wild-type ILT-2; soluble two domain form of the wild-type ILT-2
B2: SEQ ID NO 60 (receptor)
chain: MGHLPKPTLWAEPGSVITMDQPVTLRCQGGQETQQYRLYREKKTAPWITRIPQELVKKGQFPIPSITWEHAGRYRCYYGSDTRQWSASSDPLELVVTGVYIKPTLSAQPSPVVNSGGNVTLQCDSQVAFDGFILCKEGEDDHPQCLNSQPHARGSSRAIFSVGPVSPSRRWRYRCYAYDSNSPYEWTRGSDLLELDVDG
B3: SEQ ID NO 22 (receptor)
chain: MAGHLPKPTLWAEPGSVITMDQPVTLRCQGGQETQEYRLYREKKTAPWITRIPQELVKKGQFPIPSITWEHAGRYRCYYGSDTSQWSASSDPLELVVTGVYIKPTLSAQPSPVVNSGGNVTLQCDSQVAFDGFILCKEGEDEHPQCLNSQPHARGSSRAIFSVGPVSPSRRWWYRCYAYGRWLPYEWSLPSDLLELDVD
B4: SEQ ID NO 29 (receptor)
chain: MHLPKPTLWAEPGSVITLQSPVTLRCQGGQETQQYRLYREKKTAPWITRIPQELVKKGQFPIPSITWEHAGRYRCYYGSDTRQWSASSDPLELVVTGVYIKPTLSAQPSPVVNSGGNVTLQCDSQVAFDGFILCKEGEDDHPQCLNSQPHARGSSRAIFSVGPVSPSRRWRYRCYAYMSWSPYEWSLPSDLLELDVDG
B5: SEQ ID NO 42 (receptor)
chain: B4 chain with V22L, M178D, W180N
B6: SEQ ID NO 24 (receptor)
chain: B4 chain with M178P, S179I, S181T
B7: SEQ ID NO 25 (receptor)
chain: B4 chain with M178V, S179A, S181A
B8: SEQ ID NO 6 (receptor)
chain: B4 chain with M178D, W180N
B9: SEQ ID NO 28 (receptor)
chain: B4 chain with S181A
B10: SEQ ID NO 26 (receptor)
chain: B4 chain with S179N, S181A
B11: SEQ ID NO 27 (receptor)
chain: B4 chain with M178P, S179A, S181T
B12: SEQ ID NO 50 (receptor)
chain: B4 chain with V22L, S181A
B13: SEQ ID NO 49 (receptor)
chain: B4 chain with V22L
B14: SEQ ID NO 44 (receptor)
chain: MAGHLPKPTLWAEPGSVITMDQPVTLRCQGGQETQEYRLYREKKTAPWITRIPQELVKKGQFPIPSITWEHAGRYRCYYGSDTSQWSASSDPLELVVTGVYIKPTLSAQPSPVVNSGGNVTLQCDSQVAFDGFILCKEGEDEHPQCLNSQPHARGSSRAIFSVGPVSPSRRWWYRCYAYPAYTPYEWSLPSDLLELDVDG
B15: SEQ ID NO 54 (receptor)
chain: B14 chain with A181I, Y182W, L189T, P190S
B16: SEQ ID NO 55 (receptor)
chain: B14 chain with A181I, Y182W, L189S, P190G
B17: SEQ ID NO 52 (receptor)
chain: B14 chain with A181I, Y182W, L189Q, P190M
B18: SEQ ID NO 47 (receptor)
chain: B14 chain with P180M, A181S, Y182N, T183A
B19: SEQ ID NO 59 (receptor)
chain: B14 chain with P180D, A181S, Y182N, T183S, L189S, P190G
B20: SEQ ID NO 57 (receptor)
chain: B14 chain with P180D, A181S, Y182N, T183S, S188T, L189R, P190G
B21: SEQ ID NO 56 (receptor)
chain: B14 chain with A181I, Y182W, S188T, P190G
B22: SEQ ID NO 51 (receptor)
chain: B14 chain with A181I, Y182W, P190G
B23: SEQ ID NO 46 (receptor)
chain: B14 chain with P180D, A181S, Y182W, T183S
B24: SEQ ID NO 48 (receptor)
chain: B14 chain with P180D, A181S, Y182W, T183A
B25: SEQ ID NO 53 (receptor)
chain: B14 chain with A181I, Y182W, S188T, L189R, P190G
B26: SEQ ID NO 45 (receptor)
chain: B14 chain with P180M, A181S, Y182N, T183S
B27: SEQ ID NO 58 (receptor)
chain: B14 chain with P180D, A181S, Y182N, T183S, L189Q, P190M
B28: SEQ ID NO 68 (receptor)
chain: MGHLPKPTLWAEPGSVITMDQPVTLRCQGGQETQEYRLYREKKTAPWITRIPQELVKKGQFPIPSITWEHAGRYRCYYGSDTSQWSASSDPLELVVTGVYIKPTLSAQPSPVVNSGGNVTLQCDSPFIADGFILCKEGEDEHPQCLNSQPHARGSSRAIFSVGPVSPSRRWWYRCYAYMSWSPYEWSLPSDLLELDVDG
B29: SEQ ID NO 65 (receptor)
chain: B28 chain with D130E
B30: SEQ ID NO 69 (receptor)
chain: B28 chain with P126M, I128L, A129V
B31: SEQ ID NO 31 (receptor)
chain: MGHLPKPTLWAEPGSVITMDQPVTLRCQGGQETQEYRLYREKKTAPWITRIPQELVKKGQFPIPSITWEHAGRYRCYYGSDTAGRSESSDPLELVVTGVYIKPTLSAQPSPVVNSGGNVTLQCDSQVAFDGFILCKEGEDEHPQCLNSQPHARGSSRAIFSVGPVSPSRRWWYRCYAYPIWTPYEWSLPSDLLELDVDG
B32: SEQ ID NO 33 (receptor)
chain: B31 chain with P179V, I180A, T182A
B33: SEQ ID NO 66 (receptor)
chain: B28 chain with I128L, A129S, R170K
B34: SEQ ID NO 64 (receptor)
chain: B28 chain with I128Q
B35: SEQ ID NO 35 (receptor)
chain: B31 chain with P179M, I180N, T182A
B36: SEQ ID NO 62 (receptor)
chain: B28 chain with I128L, A129T
B37: SEQ ID NO 63 (receptor)
chain: B28 chain with F127W, I128L
B38: SEQ ID NO 37 (receptor)
chain: B31 chain with I180A
B39: SEQ ID NO 41 (receptor)
chain: B31 chain with P179M, I180S, T182S
B40: SEQ ID NO 39 (receptor)
chain: B31 chain with P179M, I180S, T182A
B41: SEQ ID NO 67 (receptor)
chain: B28 chain with I128V, A129S
B42: SEQ ID NO 61 (receptor)
chain: B28 chain with F127W, I128V

Target: T1, CEA-derived … (SEQ ID NO: 71)-HLA-A*0201 complex (biotin on the C-terminal biotinylation tag (enzymatic, BirA))
T1 construct: also called soluble biotinylated HLA-A2-peptide complex; not shown: C-terminal biotinylation tag that replaces the transmembrane and cytoplasmic domains
Experiment: Biacore SPR, pMHC immobilised
Protocol: SPR measures changes in refractive index expressed in response units (RU) near a sensor surface within a small flow cell, a principle that can be used to detect receptor ligand interactions and to analyse their affinity and kinetic parameters. The probe flow cells were prepared by immobilising the pMHC complexes in flow cells via biotin-tag binding. The assay was then performed by passing soluble ILT over the surfaces of the different flow cells at a constant flow rate, measuring the SPR response in doing so.

Kd	koff	Binder
~6000 nM	2.4 s⁻¹	B1
≤ 1000 nM	≤ 2 s⁻¹	B2
≤ 1000 nM	≤ 2 s⁻¹	B3
≤ 1000 nM	≤ 2 s⁻¹	B4
≤ 1000 nM	≤ 2 s⁻¹	B5
≤ 1000 nM	≤ 2 s⁻¹	B6
≤ 1000 nM	≤ 2 s⁻¹	B7
≤ 1000 nM	≤ 2 s⁻¹	B8
≤ 1000 nM	≤ 2 s⁻¹	B9
≤ 1000 nM	≤ 2 s⁻¹	B10
≤ 1000 nM	≤ 2 s⁻¹	B11
≤ 1000 nM	≤ 2 s⁻¹	B12
≤ 1000 nM	≤ 2 s⁻¹	B13
≤ 1000 nM	≤ 2 s⁻¹	B14
≤ 1000 nM	≤ 2 s⁻¹	B15
≤ 1000 nM	≤ 2 s⁻¹	B16
≤ 1000 nM	≤ 2 s⁻¹	B17
≤ 1000 nM	≤ 2 s⁻¹	B18
≤ 1000 nM	≤ 2 s⁻¹	B19
≤ 1000 nM	≤ 2 s⁻¹	B20
≤ 1000 nM	≤ 2 s⁻¹	B21

Kd	koff	Binder
≤ 1000 nM	≤ 2 s⁻¹	B22
≤ 1000 nM	≤ 2 s⁻¹	B23
≤ 1000 nM	≤ 2 s⁻¹	B24
≤ 1000 nM	≤ 2 s⁻¹	B25
≤ 1000 nM	≤ 2 s⁻¹	B26
≤ 1000 nM	≤ 2 s⁻¹	B27
≤ 1000 nM	≤ 2 s⁻¹	B28
≤ 1000 nM	≤ 2 s⁻¹	B29
≤ 1000 nM	≤ 2 s⁻¹	B30
≤ 1000 nM	≤ 2 s⁻¹	B31
≤ 1000 nM	≤ 2 s⁻¹	B32
≤ 1000 nM	≤ 2 s⁻¹	B33
≤ 1000 nM	≤ 2 s⁻¹	B34
≤ 1000 nM	≤ 2 s⁻¹	B35
≤ 1000 nM	≤ 2 s⁻¹	B36
≤ 1000 nM	≤ 2 s⁻¹	B37
≤ 1000 nM	≤ 2 s⁻¹	B38
≤ 1000 nM	≤ 2 s⁻¹	B39
≤ 1000 nM	≤ 2 s⁻¹	B40
≤ 1000 nM	≤ 2 s⁻¹	B41
≤ 1000 nM	≤ 2 s⁻¹	B42
